Kd data for one substance are collected here from article PMC5646243.

For this series, the system named is TbRpf2 (Trypanosoma brucei (427?)). Nature of the series: filter binding. As to conditions: no Rrs1; 1 mM EDTA; error presumably SEM, 3 replicates; 10 mM Tris pH 7.4, 1 mM EDTA, 100 mM NaCl, 100 ug/ml BSA, 30 min, room temperature; RNA <0.5 nM, protein 0-250 nM.

T. brucei 5S rRNA registered a Kd of 26 nM.
